Test results published in paper PMC7954794, “Protein context shapes the specificity of SH3 domain-mediated interactions in vivo” (Nature Communications, 2021).

System: PPIs identified as affected by the SH3 domain deletions
Experiment: Liquid DHFR-PCA low-throughput validation of PPIs affected by SH3 deletion (Fig. S1D-E)
Type: cell-based, Saccharomyces cerevisiae
Conditions: label = prey, liquid DHFR-PCA, prey _1 = lost, _2 = gained in screen
Method in brief: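 Growth at 30 °C was tracked by OD each 15 min over 72 h in agar-free PCA selection medium, starting at 0.1 OD. Cells were diploids selected after mating, first cultured 48 h with NAT and HPH in synthetic complete MSG medium, pH 6.0.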

B1: YHR064C_1 (protein, UniProt P38788 1-538, looked up)
Ribosome-associated complex …: MSSPVIGITFGNTSSSIAYINPKNDVDVIANPDGERAIPSALSYVGEDEYHGGQALQQLIRNPKNTIINFRDFIGLPFDKCDVSKCANGAPAVEVDGKVGFVISRGEGKEEKLTVDEVVSRHLNRLKLAAEDYIGSAVKEAVLTVPTNFSEEQKTALKASAAKIGLQIVQFINEPSAALLAHAEQFPFEKDVNVVVADFGGIRSDAAVIAVRNGIFTILATAHDLSLGGDNLDTELVEYFASEFQKKYQANPRKNARSLAKLKANSSITKKTLSNATSATISIDSLADGFDYHASINRMRYELVANKVFAQFSSFVDSVIAKAELDPLDIDAVLLTGGVSFTPKLTTNLEYTLPESVEILGPQNKNASNNPNELAASGAALQARLISDYDADELAEALQPVIVNTPHLKKPIGLIGAKGEFHPVLLAETSFPVQKKLTLKQAKGDFLIGVYEGDHHIEEKTLEPIPKEENAEEDDESEWSDDEPEVVREKLYTLGTKLMELGIKNANGVEIIFNINKDGALRVTARDLKTGNAVKGEL
Ratio (Deletedscore / WTscore) (bait BEM1-1): 0.9929
Ratio (Deletedscore / WTscore) (bait BUD14): 0.7471

B2: YKL051W_1 (protein, UniProt P35735 1-353, looked up)
Protein SFK1: MIQFKSPGNWLFIVPWIAFIPWYGMLIAMLICWASQGHPIYWFMHSEQFPVYISDIGATNLRPLFISCAGWQGLGYVITVALEFFQRSGYLPFQLKKKDPSISDSTSYAEKLHSGKYLMPPYYTKDERNLIFAAFVLGSIGELALLFSSIFSTALYHRVHIAMVSVFVVFMFLSTCCLIAEYFLMGRHYASVHPLASPHFNPQSSEKSFNQDYNTVDELPWYKWKGHVWNKFTISATLKVIWLTLAVVWAICFGAINDRSKSACFEWLLAFWFGIIFMILSADFYLGGRYRQSRYFNHVESFSGYYKYDKALGLYHSEDVLPSDDNAGVIATETASSNIYNNSSSNESIQVVV
Ratio (Deletedscore / WTscore) (bait BEM1-1): 1.076
Ratio (Deletedscore / WTscore) (bait BEM1-2): 0.4799
Ratio (Deletedscore / WTscore) (bait MYO3): 0.5607
Ratio (Deletedscore / WTscore) (bait MYO5): 0.761
